The record followed here is IntAct's records for PubMed 21763481.

First the molecules themselves.
B1: B9 domain-containing protein 2 (Mus musculus), Q3UK10 (parent)
chain: MAEVHVIGQIIGATGFSESSLFCKWGIHTGAAWKLLSGVREGQTQVDTPQIGDMAYWSHPIDLHFATKGLQGWPRLHLQVWSQDSFGRCQLAGYGFCHVPSSPGTHQLDCPTWRPLGSWREQLARAFVGGGPQLLHADTIYSGADRYRLHTAAGGTVHLGIGLLLRHFDRYGVEC
partner: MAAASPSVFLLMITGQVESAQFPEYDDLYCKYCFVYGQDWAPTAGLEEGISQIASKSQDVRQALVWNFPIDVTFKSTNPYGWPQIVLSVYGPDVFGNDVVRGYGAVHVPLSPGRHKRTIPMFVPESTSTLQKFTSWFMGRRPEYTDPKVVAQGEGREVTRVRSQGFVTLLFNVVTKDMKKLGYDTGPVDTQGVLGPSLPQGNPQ
B2: B9 domain-containing protein 2 (Mus musculus), Q3UK10 (parent)
chain: B1 chain
partner: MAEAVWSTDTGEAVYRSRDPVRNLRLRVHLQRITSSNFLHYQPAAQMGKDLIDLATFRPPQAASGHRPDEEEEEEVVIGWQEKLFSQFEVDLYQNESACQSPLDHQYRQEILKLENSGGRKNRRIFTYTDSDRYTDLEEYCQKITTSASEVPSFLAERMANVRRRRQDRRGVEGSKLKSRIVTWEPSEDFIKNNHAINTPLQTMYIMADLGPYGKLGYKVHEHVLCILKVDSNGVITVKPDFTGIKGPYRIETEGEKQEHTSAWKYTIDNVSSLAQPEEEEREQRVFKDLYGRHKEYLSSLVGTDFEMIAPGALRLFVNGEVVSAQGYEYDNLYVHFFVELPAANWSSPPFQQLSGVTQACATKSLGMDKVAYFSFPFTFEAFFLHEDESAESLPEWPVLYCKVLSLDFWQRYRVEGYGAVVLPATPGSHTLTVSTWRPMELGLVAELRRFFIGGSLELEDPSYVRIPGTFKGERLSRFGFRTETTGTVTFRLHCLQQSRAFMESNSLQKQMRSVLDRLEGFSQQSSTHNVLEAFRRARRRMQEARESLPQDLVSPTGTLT

The variants in the first test derive from B1. Conditions: with b9d1_mouse B9d1, Q9R1S0.
For the variant MAEVHVIGQIIGATGFSESSLFCKWGIHTGAAWKLLSGVREGQTQVDTPQIGDMAYWSHPIDLHFATKGLQGWPRLHLQVWSQDSFGRCQLAGYGFCHVPRSPGTHQLDCPTWRPLGSWREQLARAFVGGGPQLLHADTIYSGADRYRLHTAAGGTVHLGIGLLLRHFDRYGVEC [S101R], the “effect of a mutation on the interaction” value is “with no effect”.

The variants in a further test derive from B2. To be noted: with mks1_mouse Mks1, Q5SW45.
As for MAEVHVIGQIIGATGFSESSLFCKWGIHTGAAWKLLSGVREGQTQVDTPQIGDMAYWSHPIDLHFATKGLQGWPRLHLQVWSQDSFGRCQLAGYGFCHVPRSPGTHQLDCPTWRPLGSWREQLARAFVGGGPQLLHADTIYSGADRYRLHTAAGGTVHLGIGLLLRHFDRYGVEC [S101R], the “effect of a mutation on the interaction” value is on record as “disrupting interaction”.
